The term Km denotes the substrate concentration at which the rate is half of its maximum.

Substrate in data set [1]: Oc1ccccc1
Kind of data set: purified protein. It is filed as biochemical, Leptoxyphium fumago. The settings on record: 50 mM sodium citrate pH 5.0, 0.2 mM H2O2, 2.4 mM 4-aminoantipyrine, 30 °C in methods (room temperature in text), apparent, native enzyme.

Substrate in data set [2]: CSc1ccccc1
Kind of data set: purified protein. It is filed as biochemical, Leptoxyphium fumago. The settings on record: 50 mM sodium citrate pH 5.0, 300 μM H2O2, room temperature, apparent, native enzyme.

B1: Chloroperoxidase (CPO) (Leptoxyphium fumago) (protein)
chain: QEPGSGIGYPYDNNTLPYVAPGPTDSRAPCPALNALANHGYIPHDGRAISRETLQNAFLNHMGIANSVIELALTNAFVVCEYVTGSDCGDSLVNLTLLAEPHAFEHDHSFSRKDYKQGVANSNDFIDNRNFDAETFQTSLDVVAGKTHFDYADMNEIRLQRESLSNELDFPGWFTESKPIQNVESGFIFALVSDFNLPDNDENPLVRIDWWKYWFTNESFPYHLGWHPPSPAREIEFVTSASSAVLAASVTSTPSSLPSGAIGPGAEAVPLSFASTMTPFLLATNAPYYAQDPTLGPND
notes: not chemically modified
For the protein B1, the values for the Km in data set [1] and in data set [2] were 350 ± 10 µM and 1640 ± 90 µM, respectively.

(Values after article PMC1891289, “Improvement of activity and stability of chloroperoxidase by chemical modification” (BMC Biotechnology, 2007).)
